Read-outs that look alike come from different tables or passages of the source.
Columns and labels:
Format in all cases: binding
SARS-CoV-2 gRNA = settings: […]; LC-MS/MS; Probe I sample (first 199 lines of Table 2)
[1] = tested on: SARS-CoV-2 gRNA and sgRNAs; settings: for background (unweighted spectral count in control): no-probe control pull-down, used as background for Probe II; for target (unweighted spectral count in RNP capture): Probe II capture, LC-MS/MS LFQ
gRNA of HCoV-OC43 = settings: for target (spectral count) / background (spectral count): type g_36_m, 36 hpi, Probe I; for target (spectral count): HCoV-OC43-infected HCT-8 cells; for background (spectral count): uninfected-probe control; for target (spectral count, OC43 Probe I RNP capture) / background (spectral count, no-probe control): type n_48_v: 48 hours post-infection; for target (spectral count, OC43 Probe I RNP capture): infected cells, unweighted spectral count; for background (spectral count, no-probe control): no-probe control on infected cells
HCoV-OC43 gRNA and sgRNA = settings: for target (unweighted spectral count, OC43 Probe II capture) / target (spectral count) / background (spectral count): 36 hpi; for target (unweighted spectral count, OC43 Probe II capture): type n_36_v, FDR<10%; for target (unweighted spectral count, OC43 Probe II capture) / target (unweighted spectral count): tested against no-probe control; for target (unweighted spectral count): OC43 Probe II, infected cells; for target (unweighted spectral count, OC43 Probe II) / background (unweighted spectral count, no-probe control): type n_48_v, 48 hpi; for target (unweighted spectral count, OC43 Probe II): OC43 Probe II capture on infected cells; for background (unweighted spectral count, no-probe control): no-probe control on infected cells; for target (spectral count) / background (spectral count): type s_36_m, Probe II; for target (spectral count): HCoV-OC43-infected HCT-8 cells; for background (spectral count): uninfected-probe control

Molecule	target (unweighted spectral count of the protein in the RNP capture) (SARS-CoV-2 gRNA)	background (unweighted spectral count in control) [1]	target (spectral count) (gRNA of HCoV-OC43)	background (spectral count) (gRNA of HCoV-OC43)	target (unweighted spectral count, OC43 Probe II capture) (HCoV-OC43 gRNA and sgRNA)	target (unweighted spectral count) (HCoV-OC43 gRNA and sgRNA; 12 hpi (type n_12_v))	target (unweighted spectral count) (HCoV-OC43 gRNA and sgRNA; 24 hpi (type n_24_v))	target (unweighted spectral count, OC43 Probe II) (HCoV-OC43 gRNA and sgRNA)	background (unweighted spectral count, no-probe control) (HCoV-OC43 gRNA and sgRNA)	target (spectral count) (HCoV-OC43 gRNA and sgRNA)	background (spectral count) (HCoV-OC43 gRNA and sgRNA)	target (unweighted spectral count in RNP capture) [1]	target (spectral count, OC43 Probe I RNP capture) (gRNA of HCoV-OC43)	background (spectral count, no-probe control) (gRNA of HCoV-OC43)
HNRNPL: host protein, UniProt P14866 (protein, UniProt P14866 1-589, looked up) Heterogeneous nuclear …: MSRRLLPRAEKRRRRLEQRQQPDEQRRRSGAMVKMAAAGGGGGGGRYYGGGSEGGRAPKRLKTDNAGDQHGGGGGGGGGAGAAGGGGGGENYDDPHKTPASPVVHIRGLIDGVVEADLVEALQEFGPISYVVVMPKKRQALVEFEDVLGACNAVNYAADNQIYIAGHPAFVNYSTSQKISRPGDSDDSRSVNSVLLFTILNPIYSITTDVLYTICNPCGPVQRIVIFRKNGVQAMVEFDSVQSAQRAKASLNGADIYSGCCTLKIEYAKPTRLNVFKNDQDTWDYTNPNLSGQGDPGSNPNKRQRQPPLLGDHPAEYGGPHGGYHSHYHDEGYGPPPPHYEGRRMGPPVGGHRRGPSRYGPQYGHPPPPPPPPEYGPHADSPVLMVYGLDQSKMNCDRVFNVFCLYGNVEKVKFMKSKPGAAMVEMADGYAVDRAITHLNNNFMFGQKLNVCVSKQPAIMPGQSYGLEDGSCSYKDFSESRNNRFSTPEQAAKNRIQHPSNVLHFFNAPLEVTEENFFEICDELGVKRPSSVKVFSGKSERSSSGLLEWESKSDALETLGFLNHYQMKNPNGPYPYTLKLCFSTAQHAS	43	1	59	6	42	12	25	46	2	42	5			
DDX5: host protein, UniProt P17844 (protein, UniProt P17844 1-614, looked up) Probable ATP-dependent RNA …: MSGYSSDRDRGRDRGFGAPRFGGSRAGPLSGKKFGNPGEKLVKKKWNLDELPKFEKNFYQEHPDLARRTAQEVETYRRSKEITVRGHNCPKPVLNFYEANFPANVMDVIARQNFTEPTAIQAQGWPVALSGLDMVGVAQTGSGKTLSYLLPAIVHINHQPFLERGDGPICLVLAPTRELAQQVQQVAAEYCRACRLKSTCIYGGAPKGPQIRDLERGVEICIATPGRLIDFLECGKTNLRRTTYLVLDEADRMLDMGFEPQIRKIVDQIRPDRQTLMWSATWPKEVRQLAEDFLKDYIHINIGALELSANHNILQIVDVCHDVEKDEKLIRLMEEIMSEKENKTIVFVETKRRCDELTRKMRRDGWPAMGIHGDKSQQERDWVLNEFKHGKAPILIATDVASRGLDVEDVKFVINYDYPNSSEDYIHRIGRTARSTKTGTAYTFFTPNNIKQVSDLISVLREANQAINPKLLQLVEDRGSGRSRGRGGMKDDRRDRYSAGKRGGFNTFRDRENYDRGYSSLLKRDFGAKTQNGVYSAANYTNGSFGSNFVSAGIQTSFRTGNPTGTYQNGYDSTQQYGSNVPNMHNGMNQQAYAYPATAAAPMIGYPMPTGYSQ	32	1	30	3		8		31	3	33	3	24	30	3
HNRNPDL (protein, UniProt O14979 1-420, looked up) Heterogeneous nuclear …: MEVPPRLSHVPPPLFPSAPATLASRSLSHWRPRPPRQLAPLLPSLAPSSARQGARRAQRHVTAQQPSRLAGGAAIKGGRRRRPDLFRRHFKSSSIQRSAAAAAATRTARQHPPADSSVTMEDMNEYSNIEEFAEGSKINASKNQQDDGKMFIGGLSWDTSKKDLTEYLSRFGEVVDCTIKTDPVTGRSRGFGFVLFKDAASVDKVLELKEHKLDGKLIDPKRAKALKGKEPPKKVFVGGLSPDTSEEQIKEYFGAFGEIENIELPMDTKTNERRGFCFITYTDEEPVKKLLESRYHQIGSGKCEIKVAQPKEVYRQQQQQQKGGRGAAAGGRGGTRGRGRGQGQNWNQGFNNYYDQGYGNYNSAYGGDQNYSGYGGYDYTGYNYGNYGYGQGYADYSGQQSTYGKASRGGGNHQNNYQPY	25	1				6	9	18	3			25	17	3
SFPQ: host protein, UniProt P23246 (protein, UniProt P23246 1-707, looked up) Splicing factor, proline- and …: MSRDRFRSRGGGGGGFHRRGGGGGRGGLHDFRSPPPGMGLNQNRGPMGPGPGQSGPKPPIPPPPPHQQQQQPPPQQPPPQQPPPHQPPPHPQPHQQQQPPPPPQDSSKPVVAQGPGPAPGVGSAPPASSSAPPATPPTSGAPPGSGPGPTPTPPPAVTSAPPGAPPPTPPSSGVPTTPPQAGGPPPPPAAVPGPGPGPKQGPGPGGPKGGKMPGGPKPGGGPGLSTPGGHPKPPHRGGGEPRGGRQHHPPYHQQHHQGPPPGGPGGRSEEKISDSEGFKANLSLLRRPGEKTYTQRCRLFVGNLPADITEDEFKRLFAKYGEPGEVFINKGKGFGFIKLESRALAEIAKAELDDTPMRGRQLRVRFATHAAALSVRNLSPYVSNELLEEAFSQFGPIERAVVIVDDRGRSTGKGIVEFASKPAARKAFERCSEGVFLLTTTPRPVIVEPLEQLDDEDGLPEKLAQKNPMYQKERETPPRFAQHGTFEYEYSQRWKSLDEMEKQQREQVEKNMKDAKDKLESEMEDAYHEHQANLLRQDLMRRQEELRRMEELHNQEMQKRKEMQLRQEEERRRREEEMMIRQREMEEQMRRQREESYSRMGYMDPRERDMRMGGGGAMNMGDPYGSGGQKFPPLGGGGGIGYEANPGVPPATMSGSMMGSDMRTERFGQGGAGPVGGQGPRGMGPGTPAGYGRGREEYEGPNKKPRF	50	1	33	7	36		16	33	7	36	3	38	39	7
SERBP1 (protein, UniProt Q8NC51 2-408, looked up) SERPINE1 mRNA-binding protein …: PGHLQEGFGCVVTNRFDQLFDDESDPFEVLKAAENKKKEAGGGGVGGPGAKSAAQAAAQTNSNAAGKQLRKESQKDRKNPLPPSVGVVDKKEETQPPVALKKEGIRRVGRRPDQQLQGEGKIIDRRPERRPPRERRFEKPLEEKGEGGEFSVDRPIIDRPIRGRGGLGRGRGGRGRGMGRGDGFDSRGKREFDRHSGSDRSSFSHYSGLKHEDKRGGSGSHNWGTVKDELTESPKYIQKQISYNYSDLDQSNVTEETPEGEEHHPVADTENKENEVEEVKEEGPKEMTLDEWKAIQNKDRAKVEFNIRKPNEGADGQWKKGFVLHKSKSEEAHAEDSVMDHHFRKPANDITSQLEINFGDLGRPGRGGRGGRGGRGRGGRPNRGSRTDKSSASAPDVDDPEAFPALA	17	1			15		6	18	4			30	19	4
